Assay results from IntAct's records for PubMed 25487150.

Tests used:
pp1g_human PPP1CC = pp1g_human PPP1CC (UniProt P36873)
pp1b_human PPP1CB = pp1b_human PPP1CB (UniProt P62140)
pp1a_human PPP1CA = pp1a_human PPP1CA (UniProt P62136)
pp11_schpo dis2 [1] = target: pp11_schpo dis2 (UniProt P13681)
pp11_schpo dis2 [2] = target: pp11_schpo dis2 (UniProt P13681); remark: listed apart in the source

Chain of pp11_schpo dis2 (P13681 whole entry): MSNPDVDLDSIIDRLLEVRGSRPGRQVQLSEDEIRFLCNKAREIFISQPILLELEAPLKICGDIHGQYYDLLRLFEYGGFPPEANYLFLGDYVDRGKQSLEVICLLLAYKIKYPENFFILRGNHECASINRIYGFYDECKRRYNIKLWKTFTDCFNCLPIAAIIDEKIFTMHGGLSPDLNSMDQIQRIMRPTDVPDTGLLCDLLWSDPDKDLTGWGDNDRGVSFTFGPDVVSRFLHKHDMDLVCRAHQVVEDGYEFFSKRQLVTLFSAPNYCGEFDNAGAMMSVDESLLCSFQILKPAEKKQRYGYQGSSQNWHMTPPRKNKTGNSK
Chain of Serine/threonine-protein phosphatase 2A 56 kDa regulatory subunit delta 1 isoform (Schizosaccharomyces pombe (strain ATCC 38366 / 972)), Q10428 G367V (Q10428 whole entry G367V, canonical isoform): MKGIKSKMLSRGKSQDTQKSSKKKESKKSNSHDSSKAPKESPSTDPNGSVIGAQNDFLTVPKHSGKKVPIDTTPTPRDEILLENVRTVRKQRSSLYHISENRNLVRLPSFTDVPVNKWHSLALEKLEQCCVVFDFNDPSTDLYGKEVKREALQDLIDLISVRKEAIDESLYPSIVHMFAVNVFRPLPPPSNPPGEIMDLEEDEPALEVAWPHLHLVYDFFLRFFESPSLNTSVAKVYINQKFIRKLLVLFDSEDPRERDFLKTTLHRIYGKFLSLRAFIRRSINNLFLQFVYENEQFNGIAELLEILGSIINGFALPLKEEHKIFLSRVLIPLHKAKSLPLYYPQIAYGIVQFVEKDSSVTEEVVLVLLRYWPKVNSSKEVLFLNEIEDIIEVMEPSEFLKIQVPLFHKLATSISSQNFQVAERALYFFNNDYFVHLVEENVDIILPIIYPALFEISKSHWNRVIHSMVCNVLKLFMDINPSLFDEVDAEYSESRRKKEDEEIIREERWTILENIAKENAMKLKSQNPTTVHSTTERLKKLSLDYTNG
Chain of Serine/threonine-protein phosphatase 2A 56 kDa regulatory subunit delta 1 isoform (Schizosaccharomyces pombe (strain ATCC 38366 / 972)), Q10428 G367A (Q10428 whole entry G367A, canonical isoform): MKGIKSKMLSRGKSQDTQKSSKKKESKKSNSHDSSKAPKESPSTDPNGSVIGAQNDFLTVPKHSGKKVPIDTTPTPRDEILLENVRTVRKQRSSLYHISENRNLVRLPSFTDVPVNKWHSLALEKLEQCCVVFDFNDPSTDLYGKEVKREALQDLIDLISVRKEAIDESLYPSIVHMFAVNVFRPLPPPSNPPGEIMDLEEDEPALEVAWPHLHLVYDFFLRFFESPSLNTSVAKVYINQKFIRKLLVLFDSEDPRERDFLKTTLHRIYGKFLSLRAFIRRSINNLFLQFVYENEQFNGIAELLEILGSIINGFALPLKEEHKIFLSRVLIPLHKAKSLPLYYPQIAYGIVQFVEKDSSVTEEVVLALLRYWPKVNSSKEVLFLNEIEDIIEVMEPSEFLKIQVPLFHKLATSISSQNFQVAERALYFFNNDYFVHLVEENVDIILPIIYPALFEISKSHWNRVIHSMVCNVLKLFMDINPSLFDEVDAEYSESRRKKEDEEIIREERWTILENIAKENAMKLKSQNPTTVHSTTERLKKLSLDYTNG
Chain of Serine/threonine-protein phosphatase 2A 56 kDa regulatory subunit delta 1 isoform (Schizosaccharomyces pombe (strain ATCC 38366 / 972)), Q10428 K379A;V381A;F383A (Q10428 whole entry K379A/V381A/F383A, canonical isoform): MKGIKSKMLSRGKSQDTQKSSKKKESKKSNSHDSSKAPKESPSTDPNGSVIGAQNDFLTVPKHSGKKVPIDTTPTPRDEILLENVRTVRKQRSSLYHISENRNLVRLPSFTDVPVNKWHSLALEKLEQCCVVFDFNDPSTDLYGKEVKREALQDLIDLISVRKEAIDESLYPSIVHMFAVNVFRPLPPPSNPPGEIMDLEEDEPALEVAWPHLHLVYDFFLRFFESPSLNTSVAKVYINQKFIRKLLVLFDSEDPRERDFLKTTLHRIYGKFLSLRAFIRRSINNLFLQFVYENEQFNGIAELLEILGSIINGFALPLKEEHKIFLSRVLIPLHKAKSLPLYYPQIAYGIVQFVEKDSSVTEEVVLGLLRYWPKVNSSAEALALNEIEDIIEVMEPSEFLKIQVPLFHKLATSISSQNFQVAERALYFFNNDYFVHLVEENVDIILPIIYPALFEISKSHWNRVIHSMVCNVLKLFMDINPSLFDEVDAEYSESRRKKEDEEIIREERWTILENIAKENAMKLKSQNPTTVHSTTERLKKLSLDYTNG
Chain of Serine/threonine-protein phosphatase 2A 56 kDa regulatory subunit delta 1 isoform (Schizosaccharomyces pombe (strain ATCC 38366 / 972)), Q10428 G367A;V381A (Q10428 whole entry G367A/V381A, canonical isoform): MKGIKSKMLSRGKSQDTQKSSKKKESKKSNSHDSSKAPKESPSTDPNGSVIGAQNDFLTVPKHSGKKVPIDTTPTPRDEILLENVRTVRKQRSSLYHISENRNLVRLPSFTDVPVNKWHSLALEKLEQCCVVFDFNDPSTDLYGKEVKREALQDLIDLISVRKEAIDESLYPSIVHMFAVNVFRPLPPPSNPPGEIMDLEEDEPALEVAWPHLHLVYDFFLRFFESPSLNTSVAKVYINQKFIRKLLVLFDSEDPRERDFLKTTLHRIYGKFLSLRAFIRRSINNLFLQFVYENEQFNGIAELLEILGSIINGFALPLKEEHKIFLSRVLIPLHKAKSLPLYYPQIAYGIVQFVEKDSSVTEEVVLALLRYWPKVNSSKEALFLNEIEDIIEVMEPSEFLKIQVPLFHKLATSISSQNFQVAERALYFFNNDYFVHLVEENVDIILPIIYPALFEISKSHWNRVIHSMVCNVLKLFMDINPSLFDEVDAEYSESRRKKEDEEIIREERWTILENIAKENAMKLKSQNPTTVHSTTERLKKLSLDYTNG
Chain of Serine/threonine-protein phosphatase 2A 56 kDa regulatory subunit delta 1 isoform (Schizosaccharomyces pombe (strain ATCC 38366 / 972)), Q10428 G367V;V381A (Q10428 whole entry G367V/V381A, canonical isoform): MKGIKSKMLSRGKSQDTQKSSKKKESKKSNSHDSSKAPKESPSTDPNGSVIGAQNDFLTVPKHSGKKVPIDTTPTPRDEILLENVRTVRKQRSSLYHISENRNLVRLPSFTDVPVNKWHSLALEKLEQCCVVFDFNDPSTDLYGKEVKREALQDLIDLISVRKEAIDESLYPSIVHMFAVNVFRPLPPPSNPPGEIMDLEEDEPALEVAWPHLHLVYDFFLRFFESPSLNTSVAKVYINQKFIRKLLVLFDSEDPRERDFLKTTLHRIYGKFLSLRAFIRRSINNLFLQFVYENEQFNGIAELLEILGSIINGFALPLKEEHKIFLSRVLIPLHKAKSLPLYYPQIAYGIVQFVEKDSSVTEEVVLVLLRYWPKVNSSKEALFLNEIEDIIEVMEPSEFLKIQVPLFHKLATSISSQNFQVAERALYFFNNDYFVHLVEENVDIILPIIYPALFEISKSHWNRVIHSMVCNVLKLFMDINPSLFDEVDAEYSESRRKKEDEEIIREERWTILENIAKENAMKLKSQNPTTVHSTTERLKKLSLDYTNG
Chain of Serine/threonine-protein phosphatase 2A 56 kDa regulatory subunit delta 1 isoform (Schizosaccharomyces pombe (strain ATCC 38366 / 972)), Q10428 G367A;K379A;V381A;F383A (Q10428 whole entry G367A/K379A/V381A/F383A, canonical isoform): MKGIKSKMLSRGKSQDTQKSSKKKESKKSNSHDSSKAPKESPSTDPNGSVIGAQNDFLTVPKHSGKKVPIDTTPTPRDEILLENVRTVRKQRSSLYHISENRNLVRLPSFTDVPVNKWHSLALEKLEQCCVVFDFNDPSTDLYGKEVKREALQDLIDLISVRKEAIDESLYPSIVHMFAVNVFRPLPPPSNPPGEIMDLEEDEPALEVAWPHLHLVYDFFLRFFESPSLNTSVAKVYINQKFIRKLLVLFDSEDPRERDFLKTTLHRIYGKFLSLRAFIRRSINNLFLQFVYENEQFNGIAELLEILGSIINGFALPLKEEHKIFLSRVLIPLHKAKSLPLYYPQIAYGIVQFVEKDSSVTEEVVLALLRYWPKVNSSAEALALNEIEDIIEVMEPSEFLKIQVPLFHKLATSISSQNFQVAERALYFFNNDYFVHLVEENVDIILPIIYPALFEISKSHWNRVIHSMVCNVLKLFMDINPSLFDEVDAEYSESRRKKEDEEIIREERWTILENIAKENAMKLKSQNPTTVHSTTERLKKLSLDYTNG
Chain of Serine/threonine-protein phosphatase 2A 56 kDa regulatory subunit delta 1 isoform (Schizosaccharomyces pombe (strain ATCC 38366 / 972)), Q10428 S378D (Q10428 whole entry S378D, canonical isoform): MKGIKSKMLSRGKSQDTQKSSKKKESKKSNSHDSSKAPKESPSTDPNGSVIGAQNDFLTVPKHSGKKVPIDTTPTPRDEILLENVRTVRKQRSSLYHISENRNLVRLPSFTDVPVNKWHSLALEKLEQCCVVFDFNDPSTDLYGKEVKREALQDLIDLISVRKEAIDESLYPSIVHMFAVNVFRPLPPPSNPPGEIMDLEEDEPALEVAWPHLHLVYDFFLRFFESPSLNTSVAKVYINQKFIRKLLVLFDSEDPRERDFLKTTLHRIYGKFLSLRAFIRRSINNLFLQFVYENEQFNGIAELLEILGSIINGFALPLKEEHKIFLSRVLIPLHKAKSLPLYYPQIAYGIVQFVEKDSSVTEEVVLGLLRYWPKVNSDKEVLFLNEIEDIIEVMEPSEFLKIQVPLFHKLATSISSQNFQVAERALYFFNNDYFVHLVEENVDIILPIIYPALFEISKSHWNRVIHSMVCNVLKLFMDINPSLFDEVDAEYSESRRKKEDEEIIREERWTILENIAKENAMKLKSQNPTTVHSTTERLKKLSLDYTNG
Chain of pp1b_human PPP1CB (P62140 whole entry): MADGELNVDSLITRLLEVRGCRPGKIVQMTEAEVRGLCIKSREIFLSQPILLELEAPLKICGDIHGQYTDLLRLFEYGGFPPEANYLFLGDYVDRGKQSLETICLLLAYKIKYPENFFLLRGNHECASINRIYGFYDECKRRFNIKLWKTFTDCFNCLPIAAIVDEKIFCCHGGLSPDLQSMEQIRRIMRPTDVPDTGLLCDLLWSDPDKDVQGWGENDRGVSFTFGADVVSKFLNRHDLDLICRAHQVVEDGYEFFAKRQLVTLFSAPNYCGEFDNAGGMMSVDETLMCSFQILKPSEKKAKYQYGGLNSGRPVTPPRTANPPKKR
Chain of pp1a_human PPP1CA (P62136 whole entry): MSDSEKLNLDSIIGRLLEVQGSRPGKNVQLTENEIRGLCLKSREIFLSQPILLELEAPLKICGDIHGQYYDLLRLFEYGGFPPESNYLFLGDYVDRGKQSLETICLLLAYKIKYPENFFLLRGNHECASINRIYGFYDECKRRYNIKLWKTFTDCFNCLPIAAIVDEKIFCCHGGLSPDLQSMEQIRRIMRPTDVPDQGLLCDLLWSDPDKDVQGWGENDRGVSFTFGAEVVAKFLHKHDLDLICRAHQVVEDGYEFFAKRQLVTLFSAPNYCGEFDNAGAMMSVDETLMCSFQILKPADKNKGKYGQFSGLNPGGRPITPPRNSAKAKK

“Serine/threonine-protein phosphatase 2A 56 kDa regulatory subunit gamma isoform (Homo sapiens) (from UniProt Q13362) L289A;L290A;V302A;F304A” was tested, and the “effect of a mutation on the interaction” value (pp1g_human PPP1CC) was “disrupting interaction strength”, the “effect of a mutation on the interaction” value (pp1b_human PPP1CB) was “disrupting interaction strength” and the “effect of a mutation on the interaction” value (pp1a_human PPP1CA) was “disrupting interaction strength”.
“Serine/threonine-protein phosphatase 2A 56 kDa regulatory subunit delta 1 isoform (Schizosaccharomyces pombe (strain ATCC 38366 / 972)), Q10428 G367A” was tested, and the “effect of a mutation on the interaction” value (pp11_schpo dis2 [1]) was “decreasing interaction strength” and the “effect of a mutation on the interaction” value (pp11_schpo dis2 [2]) was “disrupting interaction strength”.
“Serine/threonine-protein phosphatase 2A 56 kDa regulatory subunit delta 1 isoform (Schizosaccharomyces pombe (strain ATCC 38366 / 972)), Q10428 G367A;V381A” was tested, and the “effect of a mutation on the interaction” value (pp11_schpo dis2 [1]) was “decreasing interaction strength” and the “effect of a mutation on the interaction” value (pp11_schpo dis2 [2]) was “disrupting interaction strength”.
With “Serine/threonine-protein phosphatase 2A 56 kDa regulatory subunit delta 1 isoform (Schizosaccharomyces pombe (strain ATCC 38366 / 972)), Q10428 G367V;K379A;V381A;F383A” the “effect of a mutation on the interaction” value (pp11_schpo dis2 [1]) was “disrupting interaction strength”.
With “Serine/threonine-protein phosphatase 2A 56 kDa regulatory subunit delta 1 isoform (Schizosaccharomyces pombe (strain ATCC 38366 / 972)), Q10428 G367A;K379A;V381A;F383A” the “effect of a mutation on the interaction” value (pp11_schpo dis2 [1]) was “disrupting interaction strength”.
In the case of “Serine/threonine-protein phosphatase 2A 56 kDa regulatory subunit delta 1 isoform (Schizosaccharomyces pombe (strain ATCC 38366 / 972)), Q10428 K379A;V381A;F383A”, the “effect of a mutation on the interaction” value (pp11_schpo dis2 [1]) is reported as “decreasing interaction strength” and the “effect of a mutation on the interaction” value (pp11_schpo dis2 [2]) is reported as “disrupting interaction strength”.
With “Serine/threonine-protein phosphatase 2A 56 kDa regulatory subunit delta 1 isoform (Schizosaccharomyces pombe (strain ATCC 38366 / 972)), Q10428 G367V;V381A” the “effect of a mutation on the interaction” value (pp11_schpo dis2 [1]) was “decreasing interaction strength”.
“Serine/threonine-protein phosphatase 2A 56 kDa regulatory subunit delta 1 isoform (Schizosaccharomyces pombe (strain ATCC 38366 / 972)), Q10428 S378D” was tested, and the “effect of a mutation on the interaction” value (pp11_schpo dis2 [1]) was “disrupting interaction strength”.
With “Serine/threonine-protein phosphatase 2A 56 kDa regulatory subunit delta 1 isoform (Schizosaccharomyces pombe (strain ATCC 38366 / 972)), Q10428 G367V” the “effect of a mutation on the interaction” value (pp11_schpo dis2 [1]) was “decreasing interaction strength” and the “effect of a mutation on the interaction” value (pp11_schpo dis2 [2]) was “disrupting interaction strength”.
